Test results from patent US6620914, “Transcription factor islet-brain 1 (IB1)” (Gerard).

Molecular target: T1, IB1 280-714 (Rattus, UniProt Q9R237 SEQ:280-714)
T1 sequence: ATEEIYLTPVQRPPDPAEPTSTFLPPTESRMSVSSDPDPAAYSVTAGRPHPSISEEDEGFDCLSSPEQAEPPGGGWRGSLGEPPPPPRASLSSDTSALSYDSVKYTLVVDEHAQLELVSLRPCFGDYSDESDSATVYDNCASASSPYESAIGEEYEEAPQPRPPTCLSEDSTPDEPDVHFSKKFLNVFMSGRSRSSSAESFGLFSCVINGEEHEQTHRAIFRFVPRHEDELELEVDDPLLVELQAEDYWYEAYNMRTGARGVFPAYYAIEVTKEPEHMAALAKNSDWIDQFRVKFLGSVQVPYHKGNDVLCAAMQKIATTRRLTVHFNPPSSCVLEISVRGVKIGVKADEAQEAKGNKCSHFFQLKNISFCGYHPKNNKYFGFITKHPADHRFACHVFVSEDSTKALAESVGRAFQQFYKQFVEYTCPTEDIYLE
Assay: SouthWestern
Settings: tags: bacterially produced; label: 32P

B1: GTII (dsDNA)
DNA 1: GTAAAGGGTGTATTGATTGGATTACCATCAATACTCAGCTTCT
DNA 2: AGAAGCTGAGTATTGATGGTAATCCAATCAATACACCCTTTAC
B1: binds.
